Test results published in the Human Domainome abundance scans (Beltran et al. 2025).
± gives the uncertainty stated by the source.

B1: Cullin-9, residues 2234 to 2275; numbered along this chain, Q8IWT3 (parent)
chain: KRCPSCQAPIEKNEGCLHMTCAKCNHGFCWRCLKSWKPNHKD

Variants of: B1
Test: abundance fitness (aPCA) (normalised: wild type 0, dead -1); higher = more abundant; growth selection in yeast, the domain comes from the species named
Conditions: Homo sapiens

Abundance fitness of substitutions, site by site:
K12: Q 0.008 ± 0.091; I -0.492 ± 0.23; P 0.057 ± 0.081; D -0.248 ± 0.12; M -0.22 ± 0.12; G 0.268 ± 0.071; S -0.112 ± 0.085; A 0.126 ± 0.081; H -0.151 ± 0.2; Y -0.152 ± 0.17; F -0.469 ± 0.38; L -0.201 ± 0.081; V -0.2 ± 0.089; T -0.046 ± 0.095
C3: S -0.303 ± 0.092; F -0.416 ± 0.2; I 0.698 ± 0.13; V -0.348 ± 0.092; T -0.435 ± 0.15; H -0.249 ± 0.15; D -0.018 ± 0.13; E -0.474 ± 0.17; Q -1.07 ± 0.14; N 0.169 ± 0.24; P -0.945 ± 0.13; W -1.4 ± 0.18; A -1.03 ± 0.12; M -0.144 ± 0.11; Y -0.342 ± 0.16; G -0.485 ± 0.08; R -0.751 ± 0.089; K -0.658 ± 0.13
P9: A -0.198 ± 0.09; Q 0.014 ± 0.1; Y -0.265 ± 0.18; R -0.048 ± 0.087; N -0.026 ± 0.26; V -0.277 ± 0.098; C -0.074 ± 0.13; M 0.056 ± 0.1; F -0.373 ± 0.21; T -0.107 ± 0.12; S -0.347 ± 0.095; H -0.291 ± 0.16; I -0.53 ± 0.41; D -0.267 ± 0.42; K -0.349 ± 0.15; E 0.051 ± 0.092; W 0.335 ± 0.14; L -0.39 ± 0.089
E14: T -0.12 ± 0.15; K -0.473 ± 0.17; A -0.001 ± 0.087; C -0.001 ± 0.13; V -0.397 ± 0.092; Q -0.132 ± 0.13; D -0.084 ± 0.16; W -0.362 ± 0.14; S -0.047 ± 0.1; N -0.219 ± 0.24; G -0.071 ± 0.087; F -0.492 ± 0.2; M 0.121 ± 0.23; L -0.411 ± 0.12; R -0.369 ± 0.091; P -0.011 ± 0.16
G15: M -0.576 ± 0.17; Q -0.777 ± 0.21; P -0.259 ± 0.12; S -0.362 ± 0.11; A -0.003 ± 0.1; E 0.045 ± 0.097; H -0.492 ± 0.17; T -0.698 ± 0.17; K -0.294 ± 0.15; C -0.113 ± 0.33; L -0.515 ± 0.17; W -0.176 ± 0.1; R -0.096 ± 0.092
I10: S -0.233 ± 0.095; K -0.598 ± 0.16; P -0.536 ± 0.17; T -0.083 ± 0.1; Q -0.231 ± 0.12; E 0.059 ± 0.13; W -0.555 ± 0.1; N -0.534 ± 0.21; A -0.193 ± 0.11; D -0.011 ± 0.09; G -0.303 ± 0.081; R -0.534 ± 0.089; H -0.588 ± 0.18; V -0.138 ± 0.085
M19: F -0.48 ± 0.22; E -0.186 ± 0.1; T 0.182 ± 0.11; R -0.28 ± 0.08; I -0.008 ± 0.19; C -0.012 ± 0.13; L -0.034 ± 0.092; H -0.405 ± 0.21; G -0.22 ± 0.074; A -0.048 ± 0.095; V 0.264 ± 0.076; S 0.016 ± 0.097; N -0.161 ± 0.18; K 0.003 ± 0.13; Q -0.019 ± 0.12; Y -0.803 ± 0.46; P 0.012 ± 0.1; W -0.223 ± 0.1; D 0.046 ± 0.13
E11: A -0.185 ± 0.14; L -0.318 ± 0.095; K -0.27 ± 0.12; H -0.138 ± 0.3; V -0.408 ± 0.1; P -0.309 ± 0.17; D -0.137 ± 0.2; Q -0.448 ± 0.33; M -0.383 ± 0.13; Y 0.319 ± 0.45; G -0.34 ± 0.079; T -0.159 ± 0.15; C -0.487 ± 0.16; S -0.41 ± 0.12; W -0.069 ± 0.14
K1: W -1.42 ± 0.38; V -0.46 ± 0.11; T -0.377 ± 0.19; Y 0.038 ± 0.38
P4: H -0.022 ± 0.32; V 0.117 ± 0.078; F 0.434 ± 0.21; L 0.065 ± 0.094; I 0.013 ± 0.14; M -0.079 ± 0.11; R -0.41 ± 0.089; N -1.15 ± 0.28; C 0.182 ± 0.12; Q -0.351 ± 0.11; G 0.056 ± 0.07; D -1.47 ± 0.39; E -1.27 ± 0.14; W -0.147 ± 0.092; Y 0.231 ± 0.17; K -1.44 ± 0.33; T 0.002 ± 0.1; S -0.129 ± 0.099; A 0.098 ± 0.078
Q7: A -0.064 ± 0.15; D 0.538 ± 0.24; S -0.406 ± 0.17; G 0.258 ± 0.079; V -0.198 ± 0.11; C -0.025 ± 0.11; T -0.073 ± 0.28; P -0.18 ± 0.12; I -0.346 ± 0.34; E 0.089 ± 0.11
A8: T -0.027 ± 0.11; F -0.01 ± 0.13; M -0.155 ± 0.1; K -0.006 ± 0.13; S -0.058 ± 0.085; I -0.341 ± 0.27; L -0.256 ± 0.083; R -0.153 ± 0.072; P -0.555 ± 0.28; D -0.284 ± 0.12; Y -0.005 ± 0.14; N 0.305 ± 0.22; C -0.213 ± 0.12; V -0.231 ± 0.083; Q 0.014 ± 0.11; G 0.023 ± 0.074
A22: M 0.082 ± 0.16; E 0.029 ± 0.11; D 0.229 ± 0.19; L -0.282 ± 0.13; K -0.333 ± 0.17; I -0.025 ± 0.14; G -0.254 ± 0.11; P 0.149 ± 0.13
L17: M -0.071 ± 0.13; Y 0.383 ± 0.29; G -0.062 ± 0.075; K -0.862 ± 0.17; S -0.186 ± 0.12; A -0.053 ± 0.079; P -0.047 ± 0.12; R -0.614 ± 0.085; I -0.267 ± 0.2; C -0.209 ± 0.25; D -0.006 ± 0.14; N -0.858 ± 0.21; T -0.236 ± 0.12; W -0.169 ± 0.099
H18: L -0.104 ± 0.09; M 0.154 ± 0.1; F -0.058 ± 0.29; I -0.155 ± 0.19; T -0.438 ± 0.12; P -0.427 ± 0.098; Y -0.503 ± 0.16; Q 0.106 ± 0.1; V -0.393 ± 0.099; C -0.425 ± 0.14; G -0.216 ± 0.081; R -0.016 ± 0.073; W -0.329 ± 0.09; E 0.019 ± 0.094; A -0.142 ± 0.083; D -0.274 ± 0.16
C6: T -0.347 ± 0.098; W -0.615 ± 0.15; A -0.029 ± 0.096; H -0.222 ± 0.11; L -0.295 ± 0.12; R -0.612 ± 0.092; I -0.419 ± 0.18; Y -0.518 ± 0.15; E -0.304 ± 0.11; Q -0.587 ± 0.12; F -0.846 ± 0.28; P -0.639 ± 0.15; K -0.515 ± 0.19; N 0.056 ± 0.31; S -0.511 ± 0.12; G -0.126 ± 0.079; V -0.383 ± 0.087; D -0.091 ± 0.13; M -0.447 ± 0.12
S5: W 0.313 ± 0.085; V 0.259 ± 0.078; I -0.142 ± 0.23; H -0.336 ± 0.32; T 0.224 ± 0.087; Y -0.291 ± 0.17; P -0.401 ± 0.1; M 0.395 ± 0.11; A 0.462 ± 0.074; D -0.147 ± 0.12; C 0.137 ± 0.1; Q 0.31 ± 0.095; K 0.489 ± 0.11; L -0.121 ± 0.081; E 0.496 ± 0.091; G 0.56 ± 0.07
C21: G -0.482 ± 0.078; K -0.489 ± 0.12; H -1.16 ± 0.29; F -0.917 ± 0.33; R -0.866 ± 0.094; Y -0.465 ± 0.2; D -0.239 ± 0.13; I -0.968 ± 0.25; W -0.823 ± 0.12; N -0.462 ± 0.21; M -0.962 ± 0.16; V -0.677 ± 0.095; Q -0.537 ± 0.12; E -0.137 ± 0.096; P -0.612 ± 0.12
R2: C 0.07 ± 0.18; T 0.147 ± 0.1; G 0.204 ± 0.079; S 0.077 ± 0.092; V -0.2 ± 0.094; K 0.123 ± 0.1; P -0.209 ± 0.13; Y 0.242 ± 0.13; W -0.279 ± 0.11; H 0.104 ± 0.35; A 0.084 ± 0.096; N 0.571 ± 0.14; I 1.09 ± 0.27; E 0.175 ± 0.1; L 0.227 ± 0.089; M 0.559 ± 0.11
N13: R -0.034 ± 0.075; P 0.183 ± 0.12; E -0.002 ± 0.1; M -0.023 ± 0.097; G -0.059 ± 0.07; Y -0.244 ± 0.16; T 0.185 ± 0.1; K 0.117 ± 0.11; H -0.165 ± 0.14; Q -0.044 ± 0.097; L 0.229 ± 0.092; W 0 ± 0.1; D -0.209 ± 0.13; V 0.051 ± 0.085; C -0.101 ± 0.15; A -0.071 ± 0.074; F -0.36 ± 0.17; I 0.493 ± 0.18; S -0.096 ± 0.1
T20: C -0.447 ± 0.13; Y 0.316 ± 0.2; R -0.143 ± 0.077; M -0.035 ± 0.12; P -0.103 ± 0.1; F -0.462 ± 0.24; Q -0.029 ± 0.1; D -0.166 ± 0.14; G -0.288 ± 0.083; H -0.154 ± 0.15; A -0.218 ± 0.085; E -0.306 ± 0.11; I 0.196 ± 0.16; S -0.304 ± 0.097; L -0.099 ± 0.097; W -0.172 ± 0.093
C16: F -0.149 ± 0.15; Q 0.416 ± 0.091; G 0.55 ± 0.069; R 0.227 ± 0.073; W -0.121 ± 0.09; S 0.422 ± 0.083; D 0.544 ± 0.092; N 0.23 ± 0.13; P 0.161 ± 0.098; M 0.202 ± 0.11; T 0.471 ± 0.11; Y -0.032 ± 0.15; E 0.507 ± 0.082; V 0.449 ± 0.085; A 0.329 ± 0.079; I 0.444 ± 0.16; H 0.105 ± 0.14; K 0.324 ± 0.099; L -0.115 ± 0.084
